Measured values: patent publication US20140099312A1

Tests used:
[1] = biological target: Human PCSK9-myc-myc-his (human) (UniProt Q8NBP7); assay: SPR, mAb captured on anti-mouse IgG, 37C
[2] = biological target: hPCSK9(D374Y)-mmh (human) (UniProt Q8NBP7); assay: ELISA, coated mAb, 1.2 nM antigen (++ OD>1.0; + OD 0.4-1.0)
[3] = biological target: Chimeric protein #3 (mPro-mCat-hC-term-mmh) (mouse; human); assay: as above
[4] = biological target: Human PCSK9-myc-myc-his (human) (UniProt Q8NBP7); assay: as above
[5] = biological target: Chimeric protein #1 (mPro-hCat-mC-term-mmh) (mouse; human) (UniProt Q80W65); assay: ELISA, coated mAb, 1.2 nM antigen
mouse PCSK9-mmh (mouse) = mouse PCSK9-mmh (mouse) (UniProt Q80W65); assay: ELISA, coated mAb, 1.2 nM antigen
[6] = biological target: Chimeric protein #2 (hPro-mCat-mC-term-mmh) (human; mouse) (UniProt Q80W65); assay: ELISA, coated mAb, 1.2 nM antigen
[7] = biological target: Human PCSK9-myc-myc-his (human) (UniProt Q8NBP7); assay: SPR, mAb captured on anti-mouse IgG, 25C

Binder	Kd [1]	T1/2 [1]	OD [2]	OD [3]	OD [4]	OD [5]	OD (mouse PCSK9-mmh (mouse))	OD [6]	Kd [7]	T1/2 [7]
H1M498 (antibody, from a related filing, V domains shown) VH: EVQLVESGGGLVKPGGSLRLSCAASGFTFSSYSMDWVRQAPGKGLEWVSSISSSSSYIYYADSVKGRFTISRDTAKNSLYLQMNSLRDEDTAVYYCAREGSSRLFDYWGQGTLVTVSS VL: DIQMTQSPSTLSASVGDRVTITCRASQSISSWLAWYQQRPGKAPKLLIYKASSLEGGVPSRFSGSGSGTEFTLTISSLQPEDFATYYCQQYNSYWYTFGQGTKLEIK	7.5 nM	14 min	> 1 od	0.4 to 1 od	> 1 od	< 0.4 od	< 0.4 od	< 0.4 od	6.4 nM	30 min
H1M495 (antibody, from a related filing, V domains shown) VH: EVQLVESGGGLVQPGRSLRLSCAASGFTFDDYAMHWVRQAPGKGLEWVSGINWNSGSIGYADSVKGRFTISRDNAKHSLYLQMNSLRPEDTALYYCVKEVTTGYYYGMDVWGQGTTVTVSS VL: DIQLTQSPSFLSASVGDRVTITCWASQGISSYLAWYQKKPGKAPNLLIYDASTLQSGVPSRFSGSGSGTEFTLTLSSLQPEDFATYYCQQLNIYPFTFGPGTKVDIK	7.5 nM	19 min	> 1 od	> 1 od	> 1 od	< 0.4 od	< 0.4 od	< 0.4 od	0.44 nM	222 min
